± gives the uncertainty stated by the source.

A short description of this data set: self-splicing fitness, log relative to wild type (ln ratio); higher = more splicing; Tetrahymena group I intron in knt gene, E. coli kanamycin selection, DiMSum; sequences stand for … in CUCUCU…GGAGGGAAAAGUUAUCAGGCAUGCACCUGGUAGCUAGUCUUUAAACCAAUAGAUUGCAUCGGUUUAAAAGGCAAGACCGUCAAAUUGCGGGAAAGGGGUCAACAGCCGUUCAGUACCAAGUCUCAGGGGAAACUUUGAGAUGGCCUUGCAAAGGGUAUGGUAAUAAGCUGACGGACAUGGUCCUAACCACGCAGCCAAGUCCUAAGUCAACAGAUCUUCUGUUGAUAUGGAUGCAGUUCACAGACUAAAUGUCGGUCGGGGAAGAUGUAUUCUUCUCAUAAGAUAUAGUCGGACCUCUCCUUAAUGGGAGCUAGCGGAUGAAGUGAUGCAACACUGGAGCCGCUGGGAACUAAUUUGUAUGCGAAAGUAUAUUGAUUAGUUUUGGAGUACUCGUGGUCG
A digest of the protocol:
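A randomised library covering all eight P1ex-region intron nucleotides was built with the intron in the knt kanamycin-resistance gene on pET-22b(+) and held in E. coli BL21(DE3). Cells were grown overnight at 37°C or 30°C on LB agar, with or without 25 μg/mL kanamycin, plus 100 μg/mL carbenicillin, 50 μM IPTG and 0.2% rhamnose, and pooled colonies were amplicon-sequenced on an Illumina HiSeq 2500. DiMSum fitness is the error-weighted combination of wild-type-normalised replicate fold changes, kanamycin versus none.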

With GAGGAGCAAUAUUACGAUUA, the “self-splicing fitness (ln)” value was -1.73 ± 0.15 (30 °C) and -1.8 ± 0.13 (37 °C).

For the sequence GAGGAGCAAUAUUACGCACG, the “self-splicing fitness (ln)” value (37 °C) is -0.155 ± 0.47.

As to GAGGAGCAAUAUUACGCCAC, the “self-splicing fitness (ln)” value (37 °C) is -2.39 ± 0.37.

On to GAGGAGCAAUAUUACGCCUC, for which the “self-splicing fitness (ln)” value (37 °C) is -2.29 ± 0.42.

Turning to GAGGAGCAAUAUUACGCCUG, the “self-splicing fitness (ln)” value by setting is: (30 °C) -2.07 ± 0.41; (37 °C) -1.3 ± 0.44.

Turning to GAGGAGCAAUAUUACGCGAA, the “self-splicing fitness (ln)” value runs as follows: (30 °C) -2.67 ± 0.35; (37 °C) -2.05 ± 0.3.

In the case of GAGGAGCAAUAUUACGCUUU, the “self-splicing fitness (ln)” value (37 °C) was -2.06 ± 0.41.

Turning to GAGGAGCAAUAUUACGGACA, the “self-splicing fitness (ln)” value was -3.15 ± 0.33 (30 °C) and -1.96 ± 0.3 (37 °C).

Take GAGGAGCAAUAUUACGGGCG: the “self-splicing fitness (ln)” value (30 °C) was -2.68 ± 0.32 and the “self-splicing fitness (ln)” value (37 °C) is -1.56 ± 0.24.

Turning to GAGGAGCAAUAUUACGGUCA, the “self-splicing fitness (ln)” value runs as follows: (30 °C) -2.76 ± 0.21; (37 °C) -2.19 ± 0.21.

For GAGGAGCAAUAUUACGGUGG, where the note is “30 °C”, the “self-splicing fitness (ln)” value was -2.76 ± 0.2.

In the case of GAGGAGCAAUAUUACGGUGU, the “self-splicing fitness (ln)” value was -3.56 ± 0.27 (30 °C) and -1.59 ± 0.21 (37 °C).

As to GAGGAGCAAUAUUACGGUUC, for the setting “37 °C”, the “self-splicing fitness (ln)” value was -3.2 ± 0.35.

In the case of GAGGAGCAAUAUUACGUCGU, the “self-splicing fitness (ln)” value is, setting by setting: (30 °C) -0.318 ± 0.28; (37 °C) -2.14 ± 0.34.

Regarding GAGGAGCAAUAUUACGUGAG, the “self-splicing fitness (ln)” value by setting is: (30 °C) -3.37 ± 0.4; (37 °C) -2.22 ± 0.26.

Regarding GAGUAGCAAUAUUACGACGA, the “self-splicing fitness (ln)” value (30 °C) was -0.0886 ± 0.15 and the “self-splicing fitness (ln)” value (37 °C) is -0.664 ± 0.12.

Turning to GAGUAGCAAUAUUACGCAGG, the “self-splicing fitness (ln)” value was -3.04 ± 0.22 (30 °C) and -3.26 ± 0.24 (37 °C).

In the case of GAGUAGCAAUAUUACGCAUU, the “self-splicing fitness (ln)” value (30 °C) was -3.07 ± 0.13 and the “self-splicing fitness (ln)” value (37 °C) was -2.07 ± 0.12.

Regarding GAGUAGCAAUAUUACGCCUU, the “self-splicing fitness (ln)” value by setting is: (30 °C) -3.2 ± 0.23; (37 °C) -0.976 ± 0.24.

Consider GAGUAGCAAUAUUACGCGUG, for which the “self-splicing fitness (ln)” value is -2.16 ± 0.08 (30 °C) and -0.531 ± 0.089 (37 °C).

Turning to GAGUAGCAAUAUUACGCUAU, the “self-splicing fitness (ln)” value (30 °C) is -3.73 ± 0.27.

As for GAGUAGCAAUAUUACGGACA, the “self-splicing fitness (ln)” value (30 °C) was -1.44 ± 0.087 and the “self-splicing fitness (ln)” value (37 °C) is -0.816 ± 0.082.

As to GAGUAGCAAUAUUACGGACG, the “self-splicing fitness (ln)” value was -3.14 ± 0.28 (30 °C) and -0.531 ± 0.2 (37 °C).

In the case of GAGUAGCAAUAUUACGGCAC, the “self-splicing fitness (ln)” value runs as follows: (30 °C) -0.661 ± 0.2; (37 °C) -0.256 ± 0.21.

For GAGUAGCAAUAUUACGGGCU, the “self-splicing fitness (ln)” value runs as follows: (30 °C) -1.43 ± 0.17; (37 °C) -1.94 ± 0.16.

Consider GAGUAGCAAUAUUACGGUUC, for which the “self-splicing fitness (ln)” value reads like this: (30 °C) -1.02 ± 0.12; (37 °C) -2.36 ± 0.3.

In the case of GAGUAGCAAUAUUACGUAGC, the “self-splicing fitness (ln)” value (30 °C) is -2.44 ± 0.34.

As to GAGUAGCAAUAUUACGUAUU, the “self-splicing fitness (ln)” value (30 °C) is -3.24 ± 0.16 and the “self-splicing fitness (ln)” value (37 °C) is -1.79 ± 0.11.

GAGUAGCAAUAUUACGUGAA: the “self-splicing fitness (ln)” value runs as follows: (30 °C) -2.5 ± 0.16; (37 °C) -1.95 ± 0.15.

On to GAGUAGCAAUAUUACGUGAG, for which the “self-splicing fitness (ln)” value is, setting by setting: (30 °C) -2.5 ± 0.081; (37 °C) -1.28 ± 0.12.

As to GAGUAGCAAUAUUACGUGGA, the “self-splicing fitness (ln)” value is, setting by setting: (30 °C) -3.37 ± 0.28; (37 °C) -2.52 ± 0.17.

Take GAGUAGCAAUAUUACGUGUC: the “self-splicing fitness (ln)” value was -1.73 ± 0.16 (30 °C) and -1.53 ± 0.26 (37 °C).

In the case of GAGUAGCAAUAUUACGUGUU, the “self-splicing fitness (ln)” value runs as follows: (30 °C) -3.05 ± 0.12; (37 °C) -1.12 ± 0.1.

Regarding GAGUAGCAAUAUUACGUUAU, the “self-splicing fitness (ln)” value is, setting by setting: (30 °C) -2.9 ± 0.23; (37 °C) -2.12 ± 0.21.

Turning to GAGUAGCAAUAUUACGUUCC, the “self-splicing fitness (ln)” value (30 °C) was -1.88 ± 0.46.

For the sequence GAGUAGCAAUAUUACGUUCU, the “self-splicing fitness (ln)” value is -2.18 ± 0.18 (30 °C) and -2.56 ± 0.21 (37 °C).

Regarding GAGUAGCAAUAUUACGUUUA, the “self-splicing fitness (ln)” value reads like this: (30 °C) -3.09 ± 0.25; (37 °C) -1.63 ± 0.19.

As for GAUAAGCAAUAUUACGAAAC, the “self-splicing fitness (ln)” value was -2.38 ± 0.2 (30 °C) and -0.746 ± 0.19 (37 °C).

As to GAUAAGCAAUAUUACGAAAG, the “self-splicing fitness (ln)” value is, setting by setting: (30 °C) -2.76 ± 0.18; (37 °C) -1.66 ± 0.21.

As to GAUAAGCAAUAUUACGAACA, the “self-splicing fitness (ln)” value was -1.02 ± 0.092 (30 °C) and -0.468 ± 0.097 (37 °C).

Consider GAUAAGCAAUAUUACGACAA, for which the “self-splicing fitness (ln)” value is, setting by setting: (30 °C) -1.46 ± 0.11; (37 °C) -0.276 ± 0.14.

As for GAUAAGCAAUAUUACGACGG, the “self-splicing fitness (ln)” value (30 °C) was -2.96 ± 0.17 and the “self-splicing fitness (ln)” value (37 °C) was -2.34 ± 0.27.

Regarding GAUAAGCAAUAUUACGAGAA, for the setting “37 °C”, the “self-splicing fitness (ln)” value was -1.38 ± 0.38.

Take GAUAAGCAAUAUUACGAUAA: the “self-splicing fitness (ln)” value (30 °C) is -1.46 ± 0.13 and the “self-splicing fitness (ln)” value (37 °C) came out at 0.344 ± 0.13.

Take GAUAAGCAAUAUUACGAUCA: the “self-splicing fitness (ln)” value is -1.33 ± 0.1 (30 °C) and -0.134 ± 0.1 (37 °C).

With GAUAAGCAAUAUUACGCGCA, the “self-splicing fitness (ln)” value reads like this: (30 °C) -0.808 ± 0.085; (37 °C) 0.383 ± 0.13.

With GAUAAGCAAUAUUACGCUUG, the “self-splicing fitness (ln)” value was -2.05 ± 0.1 (30 °C) and -0.952 ± 0.1 (37 °C).

Regarding GAUAAGCAAUAUUACGGACA, the “self-splicing fitness (ln)” value by setting is: (30 °C) -1.39 ± 0.09; (37 °C) -0.559 ± 0.088.

For the sequence GAUAAGCAAUAUUACGGACU, the “self-splicing fitness (ln)” value is -0.638 ± 0.07 (30 °C) and -0.289 ± 0.094 (37 °C).

As for GAUAAGCAAUAUUACGGCAA, the “self-splicing fitness (ln)” value (30 °C) is -0.963 ± 0.14 and the “self-splicing fitness (ln)” value (37 °C) was -0.998 ± 0.16.

For the sequence GAUAAGCAAUAUUACGGCCA, the “self-splicing fitness (ln)” value (30 °C) was -1.15 ± 0.18 and the “self-splicing fitness (ln)” value (37 °C) was found to be 0.818 ± 0.17.

For GAUAAGCAAUAUUACGGGAC, the “self-splicing fitness (ln)” value (30 °C) was -2.82 ± 0.13 and the “self-splicing fitness (ln)” value (37 °C) was -1.18 ± 0.1.

Regarding GAUAAGCAAUAUUACGGGAU, the “self-splicing fitness (ln)” value is -2.39 ± 0.18 (30 °C) and -1.89 ± 0.19 (37 °C).

Regarding GAUAAGCAAUAUUACGUAAU, the “self-splicing fitness (ln)” value is -1.78 ± 0.073 (30 °C) and -0.923 ± 0.1 (37 °C).

With GAUAAGCAAUAUUACGUAGU, the “self-splicing fitness (ln)” value reads like this: (30 °C) -2.09 ± 0.083; (37 °C) -0.957 ± 0.091.

As to GAUAAGCAAUAUUACGUAUA, the “self-splicing fitness (ln)” value is -1.81 ± 0.12 (30 °C) and -1.01 ± 0.11 (37 °C).

Consider GAUAAGCAAUAUUACGUAUU, for which the “self-splicing fitness (ln)” value is, setting by setting: (30 °C) -4.03 ± 0.37; (37 °C) -1.78 ± 0.21.

Turning to GAUAAGCAAUAUUACGUCAA, the “self-splicing fitness (ln)” value is, setting by setting: (30 °C) -1.66 ± 0.16; (37 °C) -1.39 ± 0.14.

As to GAUAAGCAAUAUUACGUGAA, the “self-splicing fitness (ln)” value was -2.2 ± 0.13 (30 °C) and -1.63 ± 0.15 (37 °C).

For GAUAAGCAAUAUUACGUGCG, the “self-splicing fitness (ln)” value runs as follows: (30 °C) -0.71 ± 0.083; (37 °C) -0.166 ± 0.13.

Regarding GAUAAGCAAUAUUACGUUCC, the “self-splicing fitness (ln)” value was -3.71 ± 0.28 (30 °C) and -2.94 ± 0.24 (37 °C).

For GAUCAGCAAUAUUACGAAGC, the “self-splicing fitness (ln)” value reads like this: (30 °C) -1.74 ± 0.078; (37 °C) -0.845 ± 0.086.

As to GAUCAGCAAUAUUACGAAUU, the “self-splicing fitness (ln)” value (30 °C) is -1.21 ± 0.065 and the “self-splicing fitness (ln)” value (37 °C) was -0.655 ± 0.083.

For the origin of these results see the supplement of paper PMC7877785.
